In experiment [1] the target is D3H44 Fab heavy chain A139C_C233S. In words: LCCA, L1:L2 DNA 1:3 normalised to 1:1, SPR of light chain tags; competitor m42.
For experiment [2] the target is unchanged. In words: LCCA, L1:L2 DNA 1:9 normalised to 1:1, SPR of light chain tags; competitor m42.
Experiment [3] has as its target D3H44 Fab heavy chain L143E_K145T_S188L. The experiment in a line: LCCA, L1:L2 DNA 1:3 normalised to 1:1, SPR of light chain tags; competitor m34.
For experiment [4], the target named is D3H44 Fab heavy chain L143K. The description is as above.
Experiment [5] deals with D3H44 Fab heavy chain L143R. The description is as above.
Experiment [6] addresses D3H44 Fab heavy chain L124E_L143D_K145T (H1 of LCCA sets 9214, 9217, 9216, 9219, 9220, 9225, 9228, 9229). In words: LCCA: H1 co-expressed with L1 and L2 (DNA 333:250:749 ng), His-tag capture on SPR chip, light chain tags detected with anti-HA/anti-FLAG; competitor L1 Q124K_V133G_S176R_T178K.
The target in experiment [7] is D3H44 Fab heavy chain L124E_K145M_Q179E. In words: LCCA, SPR of light chain tags; L1:L2 DNA 1:3 normalized to 1:1; competitor m8.
In experiment [8] the target is D3H44 Fab heavy chain L124R_D146N_Q179K. The description is as above.
The target in experiment [9] is D3H44 Fab heavy chain L124R_D146N_Q179K (H1 of LCCA sets 9358, 9359, 9357, 9351, 9352, 9353, 9354, 9350).
The target in experiment [10] is D3H44 Fab heavy chain L124R_D146N_Q179K. The experiment in a line: LCCA, L1:L2 DNA 1:3 normalised to 1:1, SPR of light chain tags; competitor m55.
The target in experiment [11] is D3H44 Fab heavy chain L124E_L143E_K145M. The experiment is described as above.
The target of experiment [12] is D3H44 Fab heavy chain L124R_D146N_Q179K (H1 of LCCA sets 9358, 9359, 9357, 9351, 9352, 9353, 9354, 9350). The experiment in a line: LCCA: H1 co-expressed with L1 and L2 (DNA 333:250:749 ng), His-tag capture on SPR chip, light chain tags detected with anti-HA/anti-FLAG; competitor L2 Q124K_V133G_S176R_T178K.
In experiment [13] the target is D3H44 Fab heavy chain L124R_Q179K. The experiment in a line: LCCA, SPR of light chain tags; L1:L2 DNA 1:3 normalized to 1:1; competitor m10.
Experiment [14] addresses D3H44 Fab heavy chain L124E_L143E_K145T. The experiment is described as above.
In experiment [15] the target is D3H44 Fab heavy chain L124R_D146N_Q179K (H1 of LCCA sets 9358, 9359, 9357, 9351, 9352, 9353, 9354, 9350). This is another data set of the same source.
In experiment [16] the target is D3H44 Fab heavy chain L124R_Q179K. The experiment in a line: LCCA, SPR of light chain tags; L1:L2 DNA 1:9 normalized to 1:1; competitor m10.
In experiment [17] the target is D3H44 Fab heavy chain L124E_L143E_K145T. Described as above.
For experiment [18], the target named is D3H44 Fab heavy chain L124R_D146N_Q179K (H1 of LCCA sets 9358, 9359, 9357, 9351, 9352, 9353, 9354, 9350). The experiment in a line: LCCA: H1 co-expressed with L1 and L2 (DNA 333:250:749 ng), His-tag capture on SPR chip, light chain tags detected with anti-HA/anti-FLAG; competitor L2 Q124K_V133G_Q160K_S176R.
Experiment [19] addresses D3H44 Fab heavy chain L124E_L143E_K145M (H1 of LCCA sets 9269, 9266, 9267, 9260, 9262, 9263). In words: LCCA: H1 co-expressed with L1 and L2 (DNA 333:250:749 ng), His-tag capture on SPR chip, light chain tags detected with anti-HA/anti-FLAG; competitor L1 Q124K_V133G_S176R_T178R.
Experiment [20] has as its target D3H44 Fab heavy chain L124E_L143D_K145T (H1 of LCCA sets 9214, 9217, 9216, 9219, 9220, 9225, 9228, 9229). The experiment is described as above.
The target in experiment [21] is D3H44 Fab heavy chain L124A_S186K. In words: LCCA, L1:L2 DNA 1:3 normalised to 1:1, SPR of light chain tags; competitor m33.
Experiment [22] addresses D3H44 Fab heavy chain L143E_K145T_S188L. The experiment in a line: LCCA, L1:L2 DNA 1:3 normalised to 1:1, SPR of light chain tags; competitor m38.
Experiment [23] concerns the target D3H44 Fab heavy chain L143E_K145T. The experiment in a line: LCCA, L1:L2 DNA 1:3 normalised to 1:1, SPR of light chain tags; competitor m35.
The target of experiment [24] is D3H44 Fab heavy chain L143E_K145T_S188L. In words: LCCA, L1:L2 DNA 1:3 normalised to 1:1, SPR of light chain tags; competitor m40.
The target in experiment [25] is D3H44 Fab heavy chain F122C_C233S. The experiment in a line: LCCA, L1:L2 DNA 1:3 normalised to 1:1, SPR of light chain tags; competitor m42.
Experiment [26] has as its target D3H44 Fab heavy chain P175C_C233S. The description is as above.
For experiment [27] the target is unchanged. The experiment in a line: LCCA, L1:L2 DNA 1:9 normalised to 1:1, SPR of light chain tags; competitor m42.
For experiment [28], the target named is D3H44 Fab heavy chain S188G. In words: LCCA, L1:L2 DNA 1:3 normalised to 1:1, SPR of light chain tags; competitor m42.
Experiment [29] concerns the target D3H44 Fab heavy chain S188L. The description is as above.
Experiment [30] concerns the target D3H44 Fab heavy chain L124A. In words: LCCA, L1:L2 DNA 1:3 normalised to 1:1, SPR of light chain tags; competitor m50.
Experiment [31] concerns the target D3H44 Fab heavy chain L124W_L143F. The description is as above.
For experiment [32], the target named is D3H44 Fab heavy chain of LCCA set 6036. The description is as above.
Experiment [33] has as its target D3H44 Fab heavy chain A139G_F174V_V190A. The experiment in a line: LCCA, L1:L2 DNA 1:3 normalised to 1:1, SPR of light chain tags; competitor m45.
The target of experiment [34] is D3H44 Fab heavy chain S188L_V190Y. Described as above.
For experiment [35], the target named is D3H44 Fab heavy chain A139G_F174V_V190A. In words: LCCA, L1:L2 DNA 1:9 normalised to 1:1, SPR of light chain tags; competitor m45.
Experiment [36] addresses D3H44 Fab heavy chain S188L_V190Y. The description is as above.
In experiment [37] the target is D3H44 Fab heavy chain L124A. The experiment in a line: LCCA, L1:L2 DNA 1:3 normalised to 1:1, SPR of light chain tags; competitor m51.
The target of experiment [38] is D3H44 Fab heavy chain L124W_L143F. The experiment is described as above.
Experiment [39] concerns the target D3H44 Fab heavy chain of LCCA set 6036. The experiment is described as above.
The target in experiment [40] is D3H44 Fab heavy chain S188L. The experiment in a line: LCCA, L1:L2 DNA 1:3 normalised to 1:1, SPR of light chain tags; competitor m48.
Experiment [41] concerns the target D3H44 Fab heavy chain S188L_V190F. The experiment in a line: LCCA, L1:L2 DNA 1:9 normalised to 1:1, SPR of light chain tags; competitor m49.
Experiment [42] deals with D3H44 Fab heavy chain S188L. In words: LCCA, L1:L2 DNA 1:3 normalised to 1:1, SPR of light chain tags; competitor m47.
The target of experiment [43] is D3H44 Fab heavy chain S188L_V190F. The experiment in a line: LCCA, L1:L2 DNA 1:3 normalised to 1:1, SPR of light chain tags; competitor m49.

Like-named read-outs stand apart in the source and are kept apart here.

The text below walks through data of patent US11306156.

As to D3H44 light chain F116C_C214S, the H1L1:H1L2 normalized median scalar value ln(r1/f1) in experiment [1] is 1.37; in experiment [2], 1.39.

Turning to D3H44 light chain Q124E_V133D_S176L, the H1L1:H1L2 normalized median ratio in experiment [3] is 26%. Besides, the H2L2:H2L1 normalized median ratio in [4] turned out to be 90%.

In the case of D3H44 light chain Q124E_V133E_S176L, in experiment [5], the H2L2:H2L1 normalized median ratio worked out at 86%. Moreover, the H1L1:H1L2 normalized median ratio in experiment [3] turned out to be 31%.

Consider “D3H44 light chain Q124E_V133G_S176D_T178E_T180E”, for which the median LCCA performance normalized to a L1:L2 DNA ratio of 1:1 (ratio H1-L1:H1-L2), H1-L2 share (ratio part of 100) in [6] was 21; in experiment [19] it was 16; in experiment [20], 17. Also, the H1L1:H1L2 normalized median ratio (% of heavy chain paired) in [7] was 6; in [14] it was 5; in [17] it was 2. Moreover, the H2L2:H2L1 normalized median ratio (% of heavy chain paired) in [8] was 90; in [13], 92; in experiment [16], 84. The median LCCA performance normalized to a L1:L2 DNA ratio of 1:1 (ratio H1-L1:H1-L2), H1-L1 share (ratio part of 100) worked out at 90 in experiment [9], 84 in experiment [12], 89 in [15] and 82 in experiment [18]. Further, in experiment [10], the H2L2:H2L1 normalized median ratio stood at 84%. Moreover, the H1L1:H1L2 normalized median ratio in experiment [11] turned out to be 16%.

With D3H44 light chain Q124E_V133W_T180E, the H1L1:H1L2 normalized median scalar value ln(r1/f1) in [21] was 2.54.

With D3H44 light chain Q124R, the H1L1:H1L2 normalized median scalar value ln(r1/f1) in experiment [22] came out at 1.06; in [23], 0.71; in experiment [24] it was 0.82.

In [25], D3H44 light chain S121C_C214S had an H1L1:H1L2 normalized median scalar value ln(r1/f1) of 3.12.

Take D3H44 light chain S162C_C214S: the H1L1:H1L2 normalized median scalar value ln(r1/f1) turned out to be 1.84 in experiment [26] and 1.24 in experiment [27].

On to D3H44 light chain S176L, for which, in experiment [28], the H1L1:H1L2 normalized median ratio worked out at 22% and the H1L1:H1L2 normalized median scalar value ln(r1/f1) is -1.25. For the same substance, in experiment [29], the H2L2:H2L1 normalized median ratio was 7%.

Regarding D3H44 light chain V133A, the H1L1:H1L2 normalized median ratio in experiment [30] came out at 59%. Besides, the H2L2:H2L1 normalized median ratio in experiment [31] worked out at 56%; in experiment [32], 59%.

For D3H44 light chain V133S, the H1L1:H1L2 normalized median ratio came to 26% in experiment [33] and 11% in experiment [35]. For the same substance, the H2L2:H2L1 normalized median ratio in experiment [34] is 58%; in experiment [36], 62%.

D3H44 light chain V133W: in experiment [37], the H1L1:H1L2 normalized median ratio amounted to 41%. Also, the H1L1:H1L2 normalized median scalar value ln(r1/f1) in [37] is -0.38. Moreover, the H2L2:H2L1 normalized median ratio in experiment [38] came out at 44%; in experiment [39] it was 41%.

Consider D3H44 light chain, wild type, for which the H2L2:H2L1 normalized median ratio in experiment [40] was determined as 61%; in [41] it was 72%; in [42] it was 93%; in [43] it was 61%.
